Source: patent US20250109212A1 (BIOSION, published 2025)

T1: cynomolgus CD40-his protein (Biosion in house made) (cynomolgus, UniProt P25942 21-191 (human entry), limits assumed)
T1 construct: also called Cyno CD40-his
T1 chain: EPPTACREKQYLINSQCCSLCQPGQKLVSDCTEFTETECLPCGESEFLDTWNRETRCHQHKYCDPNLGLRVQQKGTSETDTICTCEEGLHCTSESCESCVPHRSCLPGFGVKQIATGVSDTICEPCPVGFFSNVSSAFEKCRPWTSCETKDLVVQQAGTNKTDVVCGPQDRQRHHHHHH


Legend:
[1] = biological target: T2, full length human CD40 (uniprot #P25942-1) on 293T-CD40 cells (human, UniProt P25942 21-277); assay: FACS on 293T-CD40 cells, detection with goat anti-human IgG (Fab)-PE, MFI
T2 construct: whole, on cells
Experimental: Following an incubation of 40 minutes at 4° C. in dark, cells were washed three times and resuspended in FACS buffer. Fluorescence was measured using a Becton Dickinson FACS Canto II-HTS equipment and plotted against the recombinant fusion protein or controls concentration. Data was analyzed using Graphpad Prism and EC₅₀ values were reported.

[2] = biological target: human CD40-Fc protein (prepared in-house) (human); assay: competitive ELISA: human CD40-Fc coated, blocked ligand biotin-labeled human CD40L-his, OD(450-630)
Experimental: The ability of the recombinant fusion proteins of the disclosure to block CD40-CD40L binding was measured in a competitive ELISA assay. Briefly, 100 μl/well human CD40-Fc proteins (prepared in-house with amino acid sequence of SEQ ID NO: 22) were coated on 96-well micro plates at 2 μg/mL in coating buffer (carbonate/bicarbonate buffer) and incubated overnight at 4° C. The next day, the plates were washed once with wash buffer (PBS+0.05% v/v Tween-20, PBST), and then blocked with 5% w/v non-fatty milk in PBST for 2 hours at 37° C. The plates were then washed 4 times using the wash buffer.
Serially diluted recombinant fusion proteins of the disclosure or controls (starting at 10 µg/mL with a 5-fold serial dilution) in PBST with 2.5% w/v non-fatty milk were added to the CD40-Fc bound plates, 100 μl per well, and incubated at 37° C. for 40 minutes. The plates were washed 4 times using wash buffer, and then added and incubated for 40 minutes at 37° C. with 100 μl/well 95 ng/mL biotin-labeled human CD40L-his protein (Cat #: 10239-H08E, Sino biological). The plates were washed again using wash buffer, added with 100 μl/well streptavidin conjugated HRP (1:10000 dilution in PBST buffer, Cat #: 016-030-084, Jackson ImmunoResearch) and incubated for 40 minutes at 37° C. The plates were washed again using wash buffer. […] The absorbance was read on a microplate reader using the dual wavelength mode with 450 nm for TMB and 630 nm as the reference wavelength, then the OD (450-630) values were plotted against the recombinant fusion protein or controls concentration. Data was analyzed using Graphpad Prism and IC₅₀ values were reported.

[3] = biological target: T3, recombinant human CD40-his protein (Cat #: CD0-H5228, Acro biosystems) (human, UniProt P25942 21-193); assay: SPR (Biacore T200), sample on Protein A chip, antigen-his analyte, 1:1 fit
T3 construct: Bought protein
From the text: (§1) The purified recombinant fusion proteins were characterized for their binding affinity and binding kinetics by Biacore T200 system (GE healthcare, Pittsburgh, PA, USA). The anti-CD40 antibody HuCD40-C1H1-V2 (having the heavy chain and the light chain of SEQ ID NOs: 19 and 20), Selicrelumab (an agonistic anti-CD40 antibody, Roche Inc., prepared in-house with heavy and light chains of SEQ ID NOs: 27 and 28), and SIRPα-Fc fusion proteins, including SIRPαV2D1M1-Fc (IgG2) (SEQ ID NO: 21, X1=I, X2=R, X3=T, X4=K, X5=F), SIRPαV2D1M2-Fc (IgG2) (SEQ ID NO: 21, X1=I, X2=R, X3=T, X4=R, X5=V), SIRPα-isoform2-Fc (SEQ ID NO: 25) were used as positive controls.
(§2) A Protein A chip (Cat #: 29-1275-56, GE healthcare) was used for affinity determination. The recombinant fusion proteins of the disclosure and the positive controls each at the concentration of 2 μg/ml were respectively flowed onto the chip at a flow rate of 10 μl/min. Then, serially diluted recombinant human CD40-his proteins (Cat #: CD0-H5228, Acro biosystems), human CD47-his proteins (Cat #: CD7-H5227, Acro biosystems), cynomolgus CD40-his proteins (Biosion in house made, SEQ ID NO: 29) or cynomolgus CD47-his proteins (Cat #: CD7-C52H1, Acro biosystems), 2-fold dilution in HBS-EP⁺ buffer (provided by Biacore) with a starting concentration of 200 nM, were flowed onto the chip at a flow rate of 30 μl/min. The association kinetics was followed for 2 minutes and the dissociation kinetics was followed for 10 minutes. The association and dissociation curves were fit to a 1:1 Langmuir binding model using the Biacore evaluation software.

[4] = biological target: T1, cynomolgus CD40-his protein (Biosion in …); assay: as above
From the text: as §1, §2

EC50 [1] | IC50 [2] | Kd [3] | koff [3] | kon [3] | Kd [4] | koff [4] | kon [4] | Binder
1.54 nM | 2.93 nM | 0.71 nM | 0.00183 s⁻¹ | 2.57e+06 M⁻¹ s⁻¹ | – | – | – | BSI038×S-003 (bispecific antibody, human IgG2, kappa, Wild-type SIRPαV2D1 linked to C-terminus of each light chain of HuCD40-C1H1-V2 (human IgG2)) heavy: EVQLVESGGGLVKPGGSLRLSCAASGFTFSNYGISWVRQAPGKGLEWVSSISSGGDNTYYPDNVKGRFTISRDNAKNSLYLQMNSLRAEDTAVYYCARAGEKAMDYWGQGTLVTVSSASTKGPSVFPLAPCSRSTSESTAALGCLVKDYFPEPVTVSWNSGALTSGVHTFPAVLQSSGLYSLSSVVTVPSSNFGTQTYTCNVDHKPSNTKVDKTVERKCCVECPPCPAPPVAGPSVFLFPPKPKDTLMISRTPEVTCVVVDVSHEDPEVQFNWYVDGVEVHNAKTKPREEQFNSTFRVVSVLTVVHQDWLNGKEYKCKVSNKGLPAPIEKTISKTKGQPREPQVYTLPPSREEMTKNQVSLTCLVKGFYPSDIAVEWESNGQPENNYKTTPPMLDSDGSFFLYSKLTVDKSRWQQGNVFSCSVMHEALHNHYTQKSLSLSPGK light: not shown
1.45 nM | ~2.21 nM | 0.771 nM | 0.00188 s⁻¹ | 2.44e+06 M⁻¹ s⁻¹ | – | – | – | BSI038×S-001 (bispecific antibody, human IgG2, kappa, Wild-type SIRPαV2D1 linked to C-terminus of each heavy chain of HuCD40-C1H1-V2 (human IgG2)) heavy: not shown light: EIVLTQSPATLSLSPGERATLSCRASQTINNNLHWYQQKPGQAPRLLIKYASQSISGIPARFSGSGSGTDFTLTISSLEPEDFAVYFCQQFSSWPLTFGGGTKVEIKRTVAAPSVFIFPPSDEQLKSGTASVVCLLNNFYPREAKVQWKVDNALQSGNSQESVTEQDSKDSTYSLSSTLTLSKADYEKHKVYACEVTHQGLSSPVTKSFNRGEC
2.28 nM | 3.33 nM | 6.41 nM | 0.00231 s⁻¹ | 360000 M⁻¹ s⁻¹ | 16.8 nM | 0.00219 s⁻¹ | 131000 M⁻¹ s⁻¹ | Selicrelumab (antibody, human IgG2, kappa, V domains shown, Agonistic anti-CD40 antibody, prepared in-house) VH: not shown VL: DIQMTQSPSSVSASVGDRVTITCRASQGIYSWLAWYQQKPGKAPNLLIYTASTLQSGVPSRFSGSGSGTDFTLTISSLQPEDFATYYCQQANIFPLTFGGGTKVEIKR
